The supplement of paper PMC12764529
± gives the half width of the 95% confidence interval.

Experiments:
[1] = folding stability dG unfold from trypsin proteolysis; higher = more stable
Outline: (§1)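 Sequencing followed digestion of designed mini-proteins with trypsin and chymotrypsin, each at 11 concentrations in threefold dilutions together with a no-protease condition. The mini-proteins were under 80 residues, had no cysteine, sat in a PA-tagged cDNA display construct, and were kept only if AlphaFold2 dimer inter-PAE was above 15. From the counts, Bayesian fitting gave K50, and unfolding free energy was derived against a sequence-predicted unfolded-state K50 and a shared folded-state K50, per protease or combined.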

[2] = folding stability dG unfold from chymotrypsin proteolysis; higher = more stable
Outline: as §1

[3] = folding stability dG unfold (combined trypsin and chymotrypsin); higher = more stable
Outline: as §1

Sequence	folding stability dG unfold [1] [kcal/mol]	folding stability dG unfold [2] [kcal/mol]	folding stability dG unfold [3] [kcal/mol]
SAGGGRVAVLKVEVRNPETGETTEVELVLPLPPEMTPEEAEEAAREAARTLAESTGVEVEIKSVELLSAGGS [r8_312_TrMRF]	3.77 ± 0.068	3.278 ± 0.031	3.46 ± 0.053
SAGSGPGETKLVEEVEIDPVGPIKDSNGNPRPIKVVTKKLVEVTILEDGTVEKKVLETVVETLPPDVPLSAG [r5_132_JUSTAS]	-0.498 ± 0.23	-0.575 ± 0.1	-0.662 ± 0.51
SAGGKATVTITEVKVETETVTLKYDPETGELVEKTETVTRVEVKTITIEADKNPELAEELLKKLGIESAGGS [r16_467_TrROS_Hall]	1.69 ± 0.11	2.93 ± 0.25	2.56 ± 0.28
SAGGSAGGSAGSMTSISVDVPVPGKNVVTVTVTLPPNTTTVTITVEPLPNGELKVTVETSSAGGSAGGSAGG [r11_657_JUSTAS]	2.89 ± 0.07	2.5 ± 0.061	2.78 ± 0.1
SAGGSAGGSYTVETSPVPPGGLLKTYTSPDGVVTTTLYSPDGTVGETTTTPVPPVVPPDPAAAASAGGSAGG [r6_239_JUSTAS]	-0.067 ± 0.075	1.33 ± 0.053	0.921 ± 0.11
SAGGMPAKAVTTKLPDGTDRITVTTVGSGKSATIPVPAGELKVIEIEEGEETLSVSFVEVGPDNPELGSAGG [r13_122_TrMRF]	-0.426 ± 0.044	0.374 ± 0.014	0.104 ± 0.056
SAGGSAGGSAMSEEERRRRAEEERRKKPPVFKITEITVERDEDGNLRVTFRLEDGSTVTIELSAGGSAGGSA [r18_423_TrROS_Hall]	1.89 ± 0.039	3.33 ± 0.088	2.91 ± 0.14
SAGGSAGGSGKPEKVKITYTKDTNTNKYTATITFENGPTYKITFPTKTPEEAIEQAKKLIEASSAGGSAGGS [r12_339_TrMRF]	1.62 ± 0.061	2.05 ± 0.032	1.94 ± 0.15
SAGGSAGGAKPPKTVTVKVEVTNADGETQTRTVTLTNLPKDLKPGDTVTLPETGQTARIVEITPSAGGSAGG [r6_560_TrROS_Hall]	3.27 ± 0.078	3.02 ± 0.097	3.17 ± 0.1
SAGGRRKIEFEVWIPMDKDGEITPNEIIEEAREIAEALPNFDNVEIEEISIQHHPDGWTRYNITIEVPSAGG [r13_462_TrROS]	2.16 ± 0.16	2.42 ± 0.058	2.31 ± 0.31
SQTIRLELKNPDGRKIRIEIPVQRNPGNGYYYVSVKIEYYDPNGKPKERPITAPFNSPEDAEDQAREALRSA [r9_337_TrROS]	1.63 ± 0.12	2.06 ± 0.16	1.69 ± 0.28
SAGGSAGGIIVWFPFDDIDELIKNGNIDEVEISRDPNDWFRFTPEIRPPPPPPPEQLAKNNKKNSAGGSAGG [r6_279_TrROS]	1.03 ± 0.16	0.493 ± 0.11	0.735 ± 0.22
SAGGSAGGSAMKVRVKIKITRGSKEYEEEFILPEEEIEKLKEEIPEDYEVEIVDKEPLVLKSAGGSAGGSAG [r3_195_JUSTAS]	0.129 ± 0.16	0.771 ± 0.16	0.46 ± 0.27
SAGGIIEIDPNGWVIRIEMYPPDGKPPKHTIPFPNATPEELIDELKDWADQLPNPGHKVKIDEITPMPSAGG [r13_29_TrROS]	0.052 ± 0.071	0.372 ± 0.17	0.177 ± 0.086
SAGGSAGPSVTVDVTFHPGEGTVDVTVTTEGEVVYGKGTFLNPSTVLVEVYFPGSGKVATLTLPVTSAGGSA [r15_837_TrMRF]	1.87 ± 0.066	1.61 ± 0.07	1.73 ± 0.052
SAGGSAENDRFIVRVTIQMRNPGDGEKRTHTIPWFEFEPGKPAEEFAIDIADDFGIDNIDVEVYPLSAGGSA [r15_540_TrROS]	1.35 ± 0.023	1.68 ± 0.026	1.57 ± 0.052
SAGGSAGGSAGGSMSSSSSPLPDEDGLVTRGKSSEPSPPFTWTTTVDSSGVPSTTVTSLESAGGSAGGSAGG [r7_187_JUSTAS]	-0.484 ± 0.1	0.602 ± 0.051	0.323 ± 0.07
SAGGSAGGSAGGMAASVSPSVSYDPNTPVTNTKYTITTDGGVTPTTVVTPVVTPPPSPALSAGGSAGGSAGG [r7_413_JUSTAS]	-0.148 ± 0.16	0.149 ± 0.11	0.198 ± 0.17
SAGGSAGGKPTYYVAEVTYPGNLKATVVVEDKDNLTFVIPDTGEVWDLTDLDDIKITPVSADDPSAGGSAGG [r6_222_TrMRF]	0.633 ± 0.033	0.95 ± 0.14	0.8 ± 0.073
SAGGSAGGSAGNMWDQALRAAREAKDQGDEEVVIHFPPNMKNWVKEWAEDLGWPIKIQPTSAGGSAGGSAGG [r11_371_TrROS]	0.128 ± 0.17	0.027 ± 0.25	-0.0966 ± 0.19
SAGMNLKIEVSVTPQEFELVEKDEEGNLIKPVKQKATVVTTTTTLPDGTVTTTRSLFLDGELVATSTGSAGG [r19_44_JUSTAS]	0.716 ± 0.015	1.03 ± 0.044	0.972 ± 0.098
